Experimental findings from publication PMC9210681 are described below.

Data set [1] addresses AtsR (NCgl0886), native protein as run on the size exclusion column (Corynebacterium glutamicum). The data set can be described thus: SEC; Superdex 200 10/300 GL, 50 mM potassium phosphate pH 7.4, 0.15 M NaCl, calibrated with mass markers; native AtsR untreated; AtsR:C123SC187S reduced (20 µM protein with 50 mM DTT). A general note: Size exclusion chromatography separates by hydrodynamic size, large species first.

Data set [2] shares this target. The data set can be described thus: SEC; Superdex 200 10/300 GL; AtsR incubated with an oxidant before the run (CHP in the text, H2O2 in the legend); two species, oxidized dimer and native dimer.
For data set [3] the target is unchanged. The data set can be described thus: not stated; reduced AtsR, Additional file 1 Fig. S10A (Purification of AtsR).
The subject of data set [4] is T1, AtsR:C123SC187S C123S;C188S (Corynebacterium glutamicum (RES167 parental strain)), ORF:74efc9ce.
T1 sequence: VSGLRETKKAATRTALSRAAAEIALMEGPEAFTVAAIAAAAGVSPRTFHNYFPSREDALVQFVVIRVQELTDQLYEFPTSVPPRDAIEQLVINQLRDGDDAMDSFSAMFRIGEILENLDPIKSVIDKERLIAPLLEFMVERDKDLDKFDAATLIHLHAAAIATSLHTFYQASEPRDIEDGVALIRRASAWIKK
The data set can be described thus: EMSA. As to conditions: 10 mM Tris-HCl pH 7.4 (Fig. 6A legend: pH 8.0), 5 mM MgCl2, 50 mM KCl, 5% glycerol, 0.1% NP40, 1 ug poly(dI:dC), 1 mM DTT, 20 ul, 40 ng DNA, room temperature …. (In general: A gel shift assay detects complexes by their altered migration in electrophoresis.)

For data set [5], the system named is T2, AtsR (NCgl0886) (Corynebacterium glutamicum (RES167 parental strain)), ORF:74efc9ce.
T2 sequence: T1 sequence with S123C, S188C
The data set is described as follows: EMSA. As to conditions: 10 mM Tris-HCl pH 7.4 (Fig. 6A legend: pH 8.0), 5 mM MgCl2, 50 mM KCl, 5% glycerol, 0.1% NP40, 1 ug poly(dI:dC), 1 mM DTT, 20 ul, 40 ng DNA, room temperature ….

The target in data set [6] is His6-AtsR (Corynebacterium glutamicum). The data set can be described thus: cross-linking; disulfide bond formed by oxidant: 20 µM protein with 5 mM H2O2 or 4 mM CHP for 30 min, boiled, 15% nonreducing SDS-PAGE, Coomassie stain.
The target in data set [7] is His-tag-free AtsR:C123SC187S (Corynebacterium glutamicum). The data set can be described thus: SEC; Superdex 200 10/300 GL, 50 mM potassium phosphate pH 7.4, 0.15 M NaCl, calibrated with mass markers; native AtsR untreated; AtsR:C123SC187S reduced (20 µM protein with 50 mM DTT).
The subject of data set [8] is AtsR (NCgl0886) (Corynebacterium glutamicum (RES167 parental strain)). The data set is described as follows: EMSA. As to conditions: apparent KD; 10 mM Tris-HCl pH 7.4 (Fig. 6A legend: pH 8.0), 5 mM MgCl2, 50 mM KCl, 5% glycerol, 0.1% NP40, 1 ug poly(dI:dC), 1 mM DTT, 20 ul, 40 ng DNA, room temperature ….
Data set [9] relates to AtsR:C123SC187S (Corynebacterium glutamicum (RES167 parental strain)). The data set is described as follows: EMSA. As to conditions: apparent KD; unit inferred, nM implied from AtsR; 10 mM Tris-HCl pH 7.4 (Fig. 6A legend: pH 8.0), 5 mM MgCl2, 50 mM KCl, 5% glycerol, 0.1% NP40, 1 ug poly(dI:dC), 1 mM DTT, 20 ul, 40 ng DNA, room temperature ….

Numbering of substitutions follows the chain as printed.

Take “AtsR (NCgl0886), native protein as run on the size exclusion column (natural protein)”: the stoichiometry N in [1], in [2] and in data set [3] was 2 throughout.

Take “GCCCACAGCATAGAACTAAAACAGTATGCTTGTCCTGCTAAATGTGAATTTTTAAGAGATTCATCCCACACAATTACGAAAAAACCAGATTGCCCACAAATTAGTCTTCGAACTTTAATCAACACCACACCCAAAGCTAAACTTGCGCTCGTTGTGCAAAATTGCATTCAGGCTGAAAAATTCCTAAAGGGACTCCGTCCGAATAATTGGAAAGCCCAGAAGAACAGTCAAC (double strand) [Pncgl0887 (fragment A, 232 bp)]”: in data set [4], the Kd was determined as 42 nM and the binding entry is “binds”. For the same substance, in [5], the Kd is 34 nM and the binding result was “binds”.

In the case of “GTGGGCAGCGGAATTTCCATACCTTTAAGGATATGCACCGGGGGAAACTATGGGGATTTTGGGGGAGGTTGTTACAAAACCATACGTCTGTGAAGATATGACGAGTGCATGCCCAAAATAATGCATAGGAAAAAGGAAGAGTTAACAATGCGTAAAGGAATTTCCCGCGTCCTCTCGGTAGCGGTTGCTAGTTCTATTGGATTCG (double strand) [Pncgl0884 (205 bp)]”, in data set [5], the binding entry is given as “no binding”.

Turning to “GTTGTAGACAACAGTCAGATCGCCGTCATCGTATTCATCAAGAATATTGGTGACCTTCTCACGATCCTCTGCGGATATATCCATGGCAGAATCTGCATCAAAAGTCATCGAGATGATGCCGGTAGTCTCATCTGCACTCAGTGGACTAATCGACTCAATATCTGCGGCGATCTTCTCCGCAGGTACACCCTGAGCCTCCAGGGCTGGGGTCATCTGAGCAGCCACACCCTG (double strand) [ncgl0887 coding region control (232 bp)]”, the binding result in [5] is reported as “no binding”.

On to His6-AtsR (natural protein), for which the stoichiometry N (usually a count of units in the complex or per binding partner) in data set [6] is 2.

“His-tag-free AtsR:C123SC187S (natural protein)”: the stoichiometry N in data set [7] worked out at 2.

As to Pncgl0887 (fragment A, 232 bp), the Kd in [8] amounted to 34 nM; in data set [9], 42 nM.
